Assay results reported in patent US20220119507A1 (OHEALTH BIOPHARMACEUTICAL SUZHOU, published 2022).

Experiments:
[1] = molecular target: T1, fragment of PTX3 recombinant protein listed as SEQ ID NO:2 (human); assay: hybridoma screening
T1 peptide: RLESFSACI

[2] = molecular target: T2, fragment of PTX3 recombinant protein listed as SEQ ID NO:8 (human); assay: hybridoma screening
T2 peptide: KTILFSYGT

[3] = molecular target: T3, fragment of PTX3 recombinant protein listed as SEQ ID NO:1 (human); assay: hybridoma screening
T3 peptide: RPMRLESFS

[4] = molecular target: T4, amino acid sequence listed as SEQ ID NO:11 (203th to 217th amino acid residues of PTX3 recombinant protein) (human); assay: hybridoma screening
T4 peptide: RLESFSACIWVKATD

[5] = molecular target: T5, RI37, fragment of PTX3 recombinant protein listed as SEQ ID NO:12 (200th to 236th amino acid residues) (human); assay: hybridoma screening
T5 peptide: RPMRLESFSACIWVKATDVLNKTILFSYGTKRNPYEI

[6] = molecular target: T6, fragment of PTX3 recombinant protein listed as SEQ ID NO:7 (human); assay: hybridoma screening
T6 peptide: VLNKTILFS

[7] = molecular target: T7, fragment of PTX3 recombinant protein listed as SEQ ID NO:9 (human); assay: hybridoma screening
T7 peptide: LFSYGTKRN

[8] = molecular target: T8, fragment of PTX3 recombinant protein listed as SEQ ID NO:6 (human); assay: hybridoma screening
T8 peptide: ATDVLNKTI

[9] = molecular target: T9, fragment of PTX3 recombinant protein listed as SEQ ID NO:10 (human); assay: hybridoma screening
T9 peptide: YGTKRNPYEI

[10] = molecular target: T10, fragment of PTX3 recombinant protein listed as SEQ ID NO:5 (human); assay: ELISA on coated fragments SEQ ID NOs:1 to 10 (FIG. 4)
T10 peptide: WVKATDVLN

[11] = molecular target: T11, fragment of PTX3 recombinant protein listed as SEQ ID NO:3 (human); assay: as above
T11 peptide: SFSACIWVK

[12] = molecular target: T12, fragment of PTX3 recombinant protein listed as SEQ ID NO:4 (human); assay: as above
T12 peptide: ACIWVKATD

[13] = molecular target: PTX3 recombinant protein (undenatured amino acid sequence listed as SEQ ID NO:14) (human, UniProt P26022 19-381); assay: ELISA, PTX3 (SEQ ID NO:14) coated at 10 ug/mL, antibody 0.01 to 1000 ng/mL (FIG. 2)
PTX3 recombinant protein (undenatured amino acid sequence listed as SEQ ID NO:14), sequence (P26022 19-381 limits assumed): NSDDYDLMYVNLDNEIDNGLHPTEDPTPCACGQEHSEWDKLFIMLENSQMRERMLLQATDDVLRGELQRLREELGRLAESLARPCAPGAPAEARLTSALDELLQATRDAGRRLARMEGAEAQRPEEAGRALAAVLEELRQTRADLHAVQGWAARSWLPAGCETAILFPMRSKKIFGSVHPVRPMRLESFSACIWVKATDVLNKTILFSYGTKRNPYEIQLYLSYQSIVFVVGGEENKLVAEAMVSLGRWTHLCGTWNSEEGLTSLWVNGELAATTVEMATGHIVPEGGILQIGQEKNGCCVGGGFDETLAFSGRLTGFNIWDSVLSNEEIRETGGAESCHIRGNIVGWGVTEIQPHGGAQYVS
Protocol: Firstly, 10 μg/mL of PTX3 recombinant protein (representing a undenatured amino acid sequence listed as SEQ ID NO:14, dissolved in pH 7.2 PBS) was coated onto each well of a 96-well cell culture plate (Product No. 9018, Corning Costar), and reacted at 4° C. overnight. Next, the blocking solution (containing 3% BSA in PBS) was added into wells, and blocked for 1 hour under room temperature (i.e. 4° C. to 40° C.). After removing the blocking solution, each well was rinsed with PBS, and then reacted with a primary antibody for 1 hour under room temperature (i.e. 4° C. to 40° C.), in which the primary antibody was PTX3 mAb of EXAMPLE 1 serially diluted in a concentration range of 0.01 ng/mL to 1000 ng/mL. And then, each well was rinsed several times with PBST (i.e. PBS with Tween 20) for removing unconjugated PTX3 mAb, and reacted with secondary antibody under room temperature (i.e. 4° C. to 40° C.), in which the secondary antibody was anti-mouse IgG-HRP. Afterward, TMB was added into each well for reaction over a time period, and then added with 0.1 M of H₂SO₄ solution for 10 minutes to stop the reaction. Subsequently, the absorbance at 450 nm of each well was measured by commercially available ELISA reader, and the results were shown in FIG. 2. Each value was obtained in quadruplicate. […]

binding result [1]: binds
binding result [2]: binds
binding result [3]: binds
binding result [4]: binds
binding result [5]: binds
binding result [6]: binds
binding result [7]: binds
binding result [8]: binds
binding result [9]: binds
binding result [10]: binds
binding result [11]: binds
binding result [12]: binds
Kd [13]: 85 pM
B1: PTX3 monoclonal antibody of EXAMPLE 1 (antibody, V domains shown)
VH: EVQLQQSGAELVKPGASVKLSCTASDFNIKHTYLHWVLQRPEQGLEWIGRIDPANGDTKYDPKFQGKATITADTSSNTAYLHLSSLTSEDTAVYYCARVTTVVGFDYWGQGTTLTVSS
VL: QIVLTQSPAIMSTSLGERVTMTCTASSSVISTYLNWYQQKPGSSPKLWIYSTSNLASGVPARFSGSGSGTSYSLTISSMEAEDAATYFCHQFQRSPLTFGAGTKLELKR
notes: also called PTX3 mAb
